According to PMC11022716:

Experiments:
73 (human) = test: SPR; BIAcore 8K, 25 °C, HBS‐EP+ buffer; antibodies with hIgG‐Fc immobilised on a Series S Protein A sensor chip at 300 RU; recombinant mouse FcγRs injected at 400 to 3.125 nM, 30 µL/min, 90 s association, 120 s dissociation; 1:1 Langmuir binding model
73‐DY (human) = test: as above
hu1‐23 (human) = test: as above
rc.73-DD (mouse) = test: SPR; BIAcore 8K, 25 °C, HBS-EP+; antibodies with mIgG-Fc captured on a CM5 chip with immobilised anti-mouse antibodies; FcγRs injected at 400 to 3.125 nM (1:2 dilutions), 30 µL/min, 90 s association, 120 s dissociation; 1:1 Langmuir model
rc.hu1-23 (mouse) = test: as above
Chain of rc.hu1-23 (mouse) (heavy, as listed by the source, chain 1 of 2): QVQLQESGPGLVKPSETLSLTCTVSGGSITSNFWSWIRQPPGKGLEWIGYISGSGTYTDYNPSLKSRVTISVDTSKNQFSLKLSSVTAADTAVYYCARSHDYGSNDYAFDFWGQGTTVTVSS
Chain of rc.hu1-23 (mouse) (light, as listed by the source, chain 2 of 2): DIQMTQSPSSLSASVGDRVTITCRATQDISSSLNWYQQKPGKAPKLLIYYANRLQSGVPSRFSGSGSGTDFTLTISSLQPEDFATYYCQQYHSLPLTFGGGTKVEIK

Chain of 73 (human) (heavy, as listed by the source, chain 1 of 2): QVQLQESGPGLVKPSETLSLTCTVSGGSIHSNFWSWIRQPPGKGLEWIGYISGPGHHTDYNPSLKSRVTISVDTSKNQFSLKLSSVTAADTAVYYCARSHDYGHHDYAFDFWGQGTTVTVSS
Chain of 73 (human) (light, as listed by the source, chain 2 of 2): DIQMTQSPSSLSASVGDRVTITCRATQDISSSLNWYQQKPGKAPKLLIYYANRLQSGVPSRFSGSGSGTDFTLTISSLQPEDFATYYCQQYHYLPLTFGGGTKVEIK

Kd (73 (human)) | Kd (73‐DY (human)) | Kd (hu1‐23 (human)) | Kd (rc.73-DD (mouse)) | Kd (rc.hu1-23 (mouse)) | Binder
42.6 nM | 54.3 nM | 41.8 nM |  |  | mouse FcγRIV (receptor) GLQKAVVNLDPKWVRVLEEDSVTLRCQGTFSPEDNSIKWFHNESLIPHQDANYVIQSARVKDSGMYRCQTALSTISDPVQLEVHMGWLLLQTTKWLFQEGDPIHLRCHSWQNRPVRKVTYLQNGKGKKYFHENSELLIPKATHNDSGSYFCRGLIGHNNKSSASFRISLGDPGSPSMFPPWHQ
 | 12 nM | 233 nM | 11.8 nM | 2680 nM | mouse FcγRIII (receptor) ALPKAVVKLDPPWIQVLKEDMVTLMCEGTHNPGNSSTQWFHNGRSIRSQVQASYTFKATVNDSGEYRCQMEQTRLSDPVDLGVISDWLLLQTPQRVFLEGETITLRCHSWRNKLLNRISFFHNEKSVRYHHYKSNFSIPKANHSHSGDYYCKGSLGSTQHQSKPVTITVQDPATTSSISLVWYHT
45.2 nM | 11.1 nM | 54.1 nM |  |  | mouse FcγRI (receptor) EVVNATKAVITLQPPWVSIFQKENVTLWCEGPHLPGDSSTQWFINGTAVQISTPSYSIPEASFQDSGEYRCQIGSSMPSDPVQLQIHNDWLLLQASRRVLTEGEPLALRCHGWKNKLVYNVVFYRNGKSFQFSSDSEVAILKTNLSHSGIYHCSGTGRHRYTSAGVSITVKELFTTPVLRASVSSPFPEGSLVTLNCETNLLLQRPGLQLHFSFYVGSKILEYRNTSSEYHIARAEREDAGFYWCEVATEDSSVLKRSPELELQVLGPQSSAP
379 nM | 9.72 nM | 300 nM | 2.97 nM | 196 nM | mouse FcγRII (receptor) THDLPKAVVKLEPPWIQVLKEDTVTLTCEGTHNPGNSSTQWFHNGRSIRSQVQASYTFKATVNDSGEYRCQMEQTRLSDPVDLGVISDWLLLQTPQLVFLEGETITLRCHSWRNKLLNRISFFHNEKSVRYHHYSSNFSIPKANHSHSGDYYCKGSLGRTLHQSKPVTITVQGPKSSRSLP
